Data reported in paper PMC8899589, “Anti-PD-L1 peptide-conjugated prodrug nanoparticles for targeted cancer immunotherapy combining PD-L1 blockade with immunogenic cell death” (Theranostics, 2022).
Residues, ends and D or L forms follow the SMILES beside them. *: point of attachment. Doxorubicin(3'-N) = COc1cccc2c1C(=O)c1c(O)c3c(c(O)c1C2=O)C[C@@](O)(C(=O)CO)C[C@@H]3O[C@H]1C[C@H](N*)[C@H](O)[C@H](C)O1

Legend:
[1] = molecular target: T1, cathepsin B (Homo sapiens, UniProt P07858); assay: enzyme cleavage assay, HPLC; assay type: in vitro ADME
T1 construct: purchased R&D systems
Method: The purity and molecular weight were analyzed using HPLC and matrix-assisted laser desorption/ionization time of flight mass spectrometer (MALDI-TOF, AB Sciex TOF/TOF 5800 System, USA) with cyano-4-hydroycinnamic acid (CHCA) matrix, respectively. The average size of PD-NPs in saline (1 mg/mL) was determined via dynamic light scattering (DLS; Zetasizer Nano ZS Malvern Instruments, UK). The morphology of nanoparticles in distilled water (1 mg/mL) was observed by transmission electron microscope (TEM; CM-200, USA). As a control, the cathepsin B-cleaved PD-NPs were also observed using TEM, wherein PD-NPs (1mg/mL) were pre-incubated with cathepsin B (10 μg) at 37 °C for 24 h. Enzyme cleavage assays were performed by incubating PD-NPs (10 μM) with cathepsin B, cathepsin D, cathepsin E, caspase-3 and caspase-9 (10 μg) in MES buffer (0.1 M, pH 5.5). As a control experiment, PD-NPs (10 μM) were also pre-incubated with irreversible cathepsin B inhibitor (Z-FA-FMK; 50 μΜ) in MES buffer and then further incubated with cathepsin B. Enzyme reaction buffer was analyzed by HPLC using an acetonitrile: H2O gradient from 20:80 (0 min) to 80:20 (20 min). In vitro drug release from the PD-NPs was further investigated under both physiological and enzymatic conditions. For these analyses, PD-NPs dispersed in the mouse serum (1 mg/mL) were loaded in membrane (Molecular weight cut off: 2000 Da; Dialysis membrane Spectra/Por® 7 MWCO 2000, 18 mm; Carl Roth, Karlsruhe, Germany) in the presence or absence of cathepsin B enzyme (10 μg). After incubation, peptide-DOX or free DOX released to the outer membrane was analyzed using HPLC. Fluorescence profiles of PD-NPs (10 μM) in saline was analyzed by fluorescence spectrophotometer (F-7000, Hitachi).

[2] = test system: 4T1 tumor-bearing mice; assay: biodistribution by NIRF imaging; assay type: in vivo, mouse; details: 24 h after injection, 3 mg/kg based on DOX contents
Method: The 6-week female BALB/c mice were purchased from NaraBio (Gyeonggi-do, Republic of Korea). Mice were bred under pathogen-free conditions in the Korea Institute of Science and Technology (KIST). All experiments with animals were performed in compliance with the relevant laws and institutional guidelines of Institutional Animal Care and Use Committee (IACUC; approved number of 2020-123) in Korea Institute of Science and Technology (KIST). The in vivo biodistribution of PD-NPs was assessed in 4T1 tumor-bearing mice, which were prepared by subcutaneous inoculation of 1 x 10^7 4T1 cells. […] Noninvasive near-infrared fluorescence (NIRF) imaging was performed using an IVIS Lumina Series III system (PerkinElmer; Waltham, MA, USA) after 1, 6 and 24 h of injection. Fluorescence intensity in tumor regions was quantified using a Living Image software (PerkinElmer; Waltham, MA, USA). For ex vivo fluorescence imaging, mice were sacrificed after 24 h of injection, followed by extraction of liver, lung, spleen, kidney, heart and tumor tissues. Fluorescence intensity in tissues was analyzed using an IVIS Lumina Series III system. […] Slide-mounted tumor sections were stained with APC fluorescent dye-conjugated CD31 or PD-L1 antibody at 4 °C for 12 h, after which tumor tissues were analyzed using a Leica TCS SP8 confocal laser-scanning microscope.

[3] = test system: 4T1 tumor-bearing mice; assay: toxicity study (body weight, blood analyses); assay type: in vivo, mouse; details: for blood analyses, hematological parameters (AST, ALT, BUN, CK, WBC, NEUT, LYMP): blood collected on day 16, treated once every three days; for body weights during treatment: treated once every three days
Method: The in vivo toxicity of PD-NPs was assessed by hematological analyses. Briefly, free DOX or PD-NPs (3 mg/kg based on DOX contents) were intravenously injected once every three days, and anti-PD-L1 antibody (10 mg/kg) was simultaneously i.p. injected into mice. Then, blood samples were collected from mice on day 16. For complete blood counts (CBCs), each blood sample was mixed with EDTA and a portion of each blood sample was centrifuged at 1,000 xg for 20 min, and then supernatants were stored at 4 °C. The following factors in blood samples were measured; aspartate transaminase (AST), alanine aminotransferase (ALT), blood urea nitrogen (BUN), creatinine kinase-MB (CK-MB), white blood cell (WBC), neutrophil (NEUT) and lymphocytes (LYMP).

[4] = test system: DCs; assay: cytotoxicity against immune cells, CCK-8 assay; assay type: cell-based, mouse; details: 24 h treatment, P < 0.001
Method: (§1) 4T1 ([…]), HUVEC (human umbilical vein endothelial cells) and H9C2 (rat BDIX heart myoblasts) cells were maintained in RPMI-1640, Endothelial cell growth medium (EGM) or Dulbecco's Modified Eagle Medium (DMEM) supplemented with 10% (v/v) fetal bovine serum (FBS), 1% streptomycin and 100 U/mL penicillin, respectively. Bone marrow-derived macrophages (BMDMs) and bone marrow-derived dendritic cells (BMDCs) were prepared by isolating bone marrow cells from BALB/c mice. Then, bone marrow cells were differentiated into BMDMs by incubating with M-CSF (Macrophage colony-stimulating factor, 20 ng/mL) for 7 days, or were differentiated into BMDCs by culturing for 7 days in the presence of GM-CSF (20 ng/mL), IL4 (20 ng/mL) and 0.1% β-mercaptoethanol. After isolation, BMDMs and BMDCs were maintained in RPMI-1640 medium supplemented with 10% (v/v) FBS, 1% streptomycin, and 100 U/mL penicillin.
(§2) The cytotoxicity of PD-NPs was assessed by cell counting kit-8 (CCK-8) assays. First, 1 x 10^4 4T1, HUVEC, H9C2, BMDMs, BMDCs or CD8^+ T cells were seeded in 96-well cell culture plates. […] Then, the cells were further incubated with culture medium containing CCK-8 solution (10%) for 20 min, and cell viability was measured by a microplate reader with 450 nm of wavelength (VERSAmaxTM; Molecular Devices Corp., USA).

[5] = test system: macrophages; assay type: cell-based, mouse
Method: as §1, §2

[6] = test system: T lymphocytes; assay: cytotoxicity against immune cells, CCK-8 assay; assay type: cell-based, mouse; details: 24 h treatment, P < 0.001
Method: (§3) The cytotoxicity of PD-NPs was assessed by cell counting kit-8 (CCK-8) assays. First, 1 x 10^4 4T1, HUVEC, H9C2, BMDMs, BMDCs or CD8^+ T cells were seeded in 96-well cell culture plates. After 24 h of stabilization, the PD-NPs or free DOX were treated with each cell for 24 h. Then, the cells were further incubated with culture medium containing CCK-8 solution (10%) for 20 min, and cell viability was measured by a microplate reader with 450 nm of wavelength (VERSAmaxTM; Molecular Devices Corp., USA).

[7] = test system: 4T1 tumor-bearing mice; assay: survival analysis; assay type: in vivo, mouse; details: treated once every three days; saline group 18 days
Method: 4T1 tumor-bearing mice were randomly divided into four groups: (i) saline; (ii) free DOX; (iii) free DOX with anti-PD-L1 antibody; and (iv) PD-NPs. Then, mice were treated once every three days, with free DOX or PD-NPs (3 mg/kg based on DOX contents), at which time tumor volumes had reached 60 - 80 mm^3. The anti-PD-L1 antibody (10 mg/kg) was i.p. injected simultaneously with free DOX into mice. Antitumor efficacy was assessed by measuring tumor volumes, calculated as largest diameter x smallest diameter^2 x 0.53, every 2 days. For the analysis of antitumor immune responses, tumor tissues were collected on day 7, and single cells were isolated from tumor tissues using a Tumor Dissociation Kit. Following cell counting, the single cells were incubated with FcBlock at 37 °C for 5 min to avoid non-specific antibody binding. […] In order to assay the concentration of cytokines in the tumor microenvironment, the IFN-γ and TNF-α in the tumor supernatants were assessed using commercialized ELISA assay kits (Catalog # SMIF00 and SMTA00B, respectively, R&D systems).
The statistical significance between two groups was analyzed using Student's t-test. One-way analysis of variance (ANOVA) was performed for comparisons of more than two groups, and multiple comparisons were analyzed using Tukey-Kramer post-hoc test. Survival data was plotted as Kaplan-Meier curves and analyzed using log-rank test. […]

[8] = test system: 4T1 cells; assay: cytotoxicity, CCK-8 assay; assay type: cell-based; details: 4T1, HUVEC and H9C2 cells, 24 h treatment
Method: as §3

[9] = test system: 4T1 tumor-bearing mice; assay: in vivo tumor inhibition; set-up: species or system mouse; details: once every three days; DOX or PD-NPs i.v. 3 mg/kg based on DOX contents, antibody i.p. 10 mg/kg; saline 1655.9 ± 319.94
Method: 4T1 tumor-bearing mice were randomly divided into four groups: (i) saline; (ii) free DOX; (iii) free DOX with anti-PD-L1 antibody; and (iv) PD-NPs. Then, mice were treated once every three days, with free DOX or PD-NPs (3 mg/kg based on DOX contents), at which time tumor volumes had reached 60 - 80 mm^3. The anti-PD-L1 antibody (10 mg/kg) was i.p. injected simultaneously with free DOX into mice. Antitumor efficacy was assessed by measuring tumor volumes, calculated as largest diameter x smallest diameter^2 x 0.53, every 2 days. For the analysis of antitumor immune responses, tumor tissues were collected on day 7, and single cells were isolated from tumor tissues using a Tumor Dissociation Kit. Following cell counting, the single cells were incubated with FcBlock at 37 °C for 5 min to avoid non-specific antibody binding. Then, multi-parameter staining was performed for 40 min to assess the following populations in tumor tissues; (i) PD-L1^+ cancer cells (CD45^-PD-L1^+); (ii) CRT^+ cancer cells (CD45^-CRT^+); (iii) CD8^+ T cells (CD45^+CD3^+CD8^+); and (iv) regulatory T cells (Tregs; CD45^+CD3^+CD4^+CD25^+). In order to assay the concentration of cytokines in the tumor microenvironment, the IFN-γ and TNF-α in the tumor supernatants were assessed using commercialized ELISA assay kits (Catalog # SMIF00 and SMTA00B, respectively, R&D systems).

[10] = test system: PD-L1 in IFN-γ-treated 4T1 cells; assay: PD-L1 expression by western blot; assay type: cell-based; details: 4T1 cells pre-treated with IFN-γ 20 ng/mL 24 h, then 2 μM for 24 h
Method: PD-L1 expression in 4T1 cells after different treatment was analyzed via western blot. Briefly, 1 × 10^6 4T1 cells were seeded in 6-well cell culture plates with RPMI medium containing 10% FBS and 1% antibiotics. After 24 h of stabilization, the cells were pre-treated with IFN-γ (20 ng/mL) for 24 h and further incubated with equal molar dose (2 μM) of free DOX, PD-NPs, anti-PD-L1 antibody or anti-PD-L1 peptide ([…]) for 24 h. Then, each cell was solubilized with lysis buffer containing 1% protease inhibitors, and the lysates were centrifuged at 10,000 rpm for 15 min to remove cell debris. Proteins in lysates were quantified via BCA protein quantification kit (Thermo Fisher scientific, USA), and then separated by sodium dodecyl sulfate-polyacrylamide (SDS-PAGE) gel electrophoresis and transferred onto polyvinylidene difluoride (PVDF) membranes. Membranes were incubated with TBS-T containing 5% bovine serum albumin (BSA) for 50 min to block non-specific IgG binding and incubated with anti-mouse PD-L1 primary antibody ([…]) for 12 h at 4 °C. Then, membranes were further incubated with HRP-conjugated anti-rabbit IgG antibody for 90 min at room temperature. Finally, immunoreactive bands were observed via enhanced chemiluminescence (ECL) system.

| Structure (SMILES) | cleavage by cathepsin B ([1]; cathepsin B 10 μg, pH 5.5 MES buffer, 0, 6, 12 and 24 h, HPLC) | accumulation in the liver tissues versus free DOX ([2]; ex vivo NIRF imaging) | accumulation at tumor tissues compared to free DOX ([2]; i.v., NIRF) | blood analyses, hematological parameters (AST, ALT, BUN, CK, WBC, NEUT, LYMP) [3] | body weights during treatment [3] | cytotoxicity compared to free DOX [4] | cytotoxicity compared to free DOX [5] | cleaved by cathepsin B ([1]; 10 μM, cathepsin B 10 μg, MES buffer 0.1 M pH 5.5, 6 h post-incubation, HPLC) | cleavage in cathepsin B-suppressed condition ([1]; cathepsin B with irreversible inhibitor Z-FA-FMK 50 μM, MES buffer pH 5.5, HPLC) | cytotoxicity compared to free DOX [6] | median survival [7] [days] | cytotoxicity in three types of cells [8] | tumor volume on day 16 [9] [mm^3] | PD-L1 expression [10] |
| --- | --- | --- | --- | --- | --- | --- | --- | --- | --- | --- | --- | --- | --- | --- |
| COc1cccc2c1C(=O)c1c(O)c3c(c(O)c1C2=O)C[C@@](O)(C(=O)CO)C[C@@H]3O[C@H]1C[C@H](NC(=O)CNC(=O)[C@H](CCCNC(=N)N)NC(=O)CNC(=O)[C@H](Cc2ccccc2)NC(=O)[C@H](CCCNC(=N)N)NC(=O)[C@@H](NC(=O)[C@H](CCCNC(=N)N)NC(=O)[C@H](C)NC(=O)[C@H](CCCNC(=N)N)NC(=O)[C@@H](NC(=O)[C@H](CS)NC(C)=O)C(C)C)[C@@H](C)O)[C@H](O)[C@H](C)O1 [CVRARTR-FGRG-DOX] (Ac-CVRARTRFGRG-{Doxorubicin(3'-N)}) | not cleaved | – | – | – | – | – | – | – | – | – | – | – | – | – |
| COc1cccc2c1C(=O)c1c(O)c3c(c(O)c1C2=O)C[C@@](O)(C(=O)CO)C[C@@H]3O[C@H]1C[C@H](NC(=O)CNC(=O)[C@H](CCCNC(=N)N)NC(=O)[C@H](CCCNC(=N)N)NC(=O)[C@H](Cc2ccccc2)NC(=O)[C@H](CCCNC(=N)N)NC(=O)[C@@H](NC(=O)[C@H](CCCNC(=N)N)NC(=O)[C@H](C)NC(=O)[C@H](CCCNC(=N)N)NC(=O)[C@@H](NC(=O)[C@H](CS)NC(C)=O)C(C)C)[C@@H](C)O)[C@H](O)[C@H](C)O1 [PD-NPs] (Ac-CVRARTRFRRG-{Doxorubicin(3'-N)}) | – | significantly higher accumulation | 4.01-4.48 times | in normal range | gradually increased | significantly reduced | significantly reduced | approximately 99% | not cleaved | significantly reduced | – | – | – | – |
| COc1cccc2c1C(=O)c1c(O)c3c(c(O)c1C2=O)C[C@@](O)(C(=O)CO)C[C@@H]3O[C@H]1C[C@H](N)[C@H](O)[C@H](C)O1.Cl [free DOX, Doxorubicin hydrochloride] | – | – | – | severe cardiac, renal and hepatic toxicity | severe body weight loss | – | – | – | – | – | 20 | indiscriminate cytotoxicity with similar IC50 | 1028.73 ± 218.15 | further increased |
